Results on five molecules are retold here after patent publication US7250505 (FRED HUTCHINSON CANCER RESEARCH CENTER, dated 2007).

For test [1], the target named is LexA-Src(295R) fusion protein (UniProt P0A7C2 1-202; P00523 1-533). As to the kind of experiment: yeast two-hybrid, beta-galactosidase filter assay.
The target in another test is T1, activated Src (Src527F) (UniProt P00523 1-533).
T1 construct: the old residue (Tyr) is from general knowledge
As to the kind of experiment: co-expression with Src527F in 293T cells, immunoprecipitation and immunoblot.

For test [2], the target named is T2, APP protein (endogenous, full-length) (UniProt P12023 18-770, limits assumed).
T2 construct: P19 is a mouse line by general knowledge; also called endogenous, full-length APP; amyloid precursor protein
As to the kind of experiment: GST pull-down from P19 cell extracts, Western blot. A general note: In western blotting, separated proteins are transferred to a membrane and probed.
Protocol: To test whether mDab1 would bind to the cytoplasmic tail of the APP protein, extracts of P19 cells were incubated with GST fusion proteins and subjected to immunoblot analysis as described above. […] Bound proteins were detected by SDS-PAGE followed by Western blotting.

For test [3], the target named is T3, GST-mDab1 PTB domain fusion protein (mouse, UniProt O75553 29-197 (human entry)).
T3 construct: also called GST-PTB; not shown: glutathione S-transferase encoded by the pGEX-2T vector
T3 sequence: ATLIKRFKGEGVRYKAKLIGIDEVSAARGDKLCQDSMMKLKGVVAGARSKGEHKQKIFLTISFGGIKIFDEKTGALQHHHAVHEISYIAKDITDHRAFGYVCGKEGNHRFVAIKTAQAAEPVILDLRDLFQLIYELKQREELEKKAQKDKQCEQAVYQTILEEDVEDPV
As to the kind of experiment: cellulose peptide array, radiolabeled GST-PTB.

Non-standard residues stand in square brackets, D forms with d. No end group written: not given here. pY = N[C@@H](Cc1ccc(OP(=O)(O)O)cc1)C(=O)O

B1: mDab1 clone B3 fused to the VP16 transactivation domain (other)
chain: HHHAVHEISYIAKDITDHRAFGYVCGKEGNHRFVAIKTAQAAEPVILDLRDLFQLIYELKQREELEKKAQKDKQCEQAVYQTILEEDVEDPVYQYIVFEAGHEPIRDPETEENIYQVPTSQKKEGVYDVPKSQPVSAVTQLELFGDMSTPPDITSPPTPATPGDAFLPS
With B1, the binding result in test [1] is recorded as “no binding”.

B2: mDab198/200F (mutant mDab555 with Phe in place of Tyr 198 and Tyr 200) (other)
chain: MSTETELQVAVKTSAKKDSRKKGQDRSEATLIKRFKGEGVRYKAKLIGIDEVSAARGDKLCQDSMMKLKGVVAGARSKGEHKQKIFLTISFGGIKIFDEKTGALQHHHAVHEISYIAKDITDHRAFGYVCGKEGNHRFVAIKTAQAAEPVILDLRDLFQLIYELKQREELEKKAQKDKQCEQAVYQTILEEDVEDPVFQFIVFEAGHEPIRDPETEENIYQVPTSQKKEGVYDVPKSQPVSAVTQLELFGDMSTPPDITSPPTPATPGDAFLPSSSQTLPGSADVFGSMSFGTAAVPSGYVAMGAVLPSFWGQQPLVQQQIAMGAQPPVAQVIPGAQPIAWGQPGLFPATQQAWPTVAGQFPPAAFMPTQTVMPLAAAMFQGPLTPLATVPGTNDSARSSPQSDKPRQKMGKESFKDFQMVQPPPVPSRKPDQPSLTCTSEAFSSYFNKVGVAQDTDDCDDFDISQLNLTPVTSTTPSTNSPPTPAPRQSSPSKSSASHVSDPTADDIFEEGFESPSKSEEQEAPDGSQASSTSDPFGEPSGEPSGDNISPQDGS
notes: Co-expressed with Src527F in 293T cells
As for B2, in the test with activated Src (Src527F), the “fold reduction of the in vivo association against mDab555” value was roughly 2 fold.

B3: GST-mDab1 56E PTB domain fusion protein (other)
chain: ATLIKRFKGEGVRYKAKLIGIDEVSAAEGDKLCQDSMMKLKGVVAGARSKGEHKQKIFLTISFGGIKIFDEKTGALQHHHAVHEISYIAKDITDHRAFGYVCGKEGNHRFVAIKTAQAAEPVILDLRDLFQLIYELKQREELEKKAQKDKQCEQAVYQTILEEDVEDPV
notes: also called mDab56E-GST; mutant mDab1 PTB; not shown: GST of pGEX-2T and its linker
Take B3: the binding result in test [2] was “no binding”.

B4: TrkA peptide with the motif Ile Ile Glu Asn Pro Gln Tyr, not phosphorylated (peptide)
peptide: IIENPQY
notes: 15 to 17 residue peptide on a cellulose array; only the motif is printed; also called NGF receptor (TrkA) peptide
Take B4: the binding result in test [3] is recorded as “no binding”.
IIENPQ[pY] (also: on cellulose array, NPXpY peptide on a cellulose array) [TrkA peptide with the motif Ile Ile Glu Asn Pro Gln Tyr, phosphorylated]: in test [3], the binding result is recorded as “no binding”.
